The text below walks through data of publication PMC2767389.

The assay deals with C1-100, C-terminally truncated C protein of HPIV3, C-terminally flag-tagged (human parainfluenza virus type 3). As to the kind of experiment: co-IP.

As for “HPIV3 L protein (viral RNA polymerase), non-tagged (from UniProt P12577 1-2233) (enzyme)”, the L/C ratio was found to be 0.03.
